From patent US7297515 (MYRIAD GENETICS, dated 2007) come the findings set out here.

The target in test [1] is T1, novel protein PN1851, fragment residues 14-369 (human, UniProt P04386 768-881 (Saccharomyces cerevisiae entry)).
T1 construct: range 768-881
Put plainly: yeast two-hybrid search, bait ZNF202 33-118. The source says:
(§1) The new construct was selected directly in the yeast strain PNY200 for its ability to drive tryptophane synthesis (genotype of this strain: MATα trp1-901 leu2-3, 112 ura3-52 his3-200 ade2 gal4Δ gal80). In these yeast cells, the bait was produced as a C-terminal fusion protein with the DNA binding domain of the transcription factor Gal4 (amino acids 1 to 147). Prey libraries were transformed into the yeast strain BK100 (genotype of this strain: MATa trp1-901 leu2-3,112 ura3-52 his3-200 gal4Δ gal80 LYS2::GAL-HIS3 GAL2-ADE2 met2::GAL7-lacZ), and selected for the ability to drive leucine synthesis. In these yeast cells, each cDNA was expressed as a fusion protein with the transcription activation domain of the transcription factor Gal4 (amino acids 768 to 881) and a 9 amino acid hemagglutinin epitope tag. PNY200 cells (MATα mating type), expressing the bait, were then mated with BK100 cells (MATa mating type), expressing prey proteins from a prey library. The resulting diploid yeast cells expressing proteins interacting with the bait protein were selected for the ability to synthesize tryptophan, leucine, histidine, and adenine. […]

In test [2] the target is T2, zinc finger protein 202, alt. transcript beta (ZNF202b), bait fragment amino acids 1-224 (human, UniProt P04386 1-147; O95125 1-224).
T2 construct: also called ZNF202beta; ZNF202 m1
The test is described as follows: yeast two-hybrid; prey fragment isolated with ZNF202b bait 1-224.
From the text: as §1, with “In” for “The new construct was selected directly in the yeast strain PNY200 for its ability to drive tryptophane synthesis (genotype of this strain: MATα trp1-901 leu2-3, 112 ura3-52 his3-200 ade2 gal4Δ gal80). In”, “adenine. DNA was prepared from each clone, transformed by electroporation into *E. coli* strain KC8 (Clontech KC8 electrocompetent cells, Catalog No. C2023-1), and the cells were selected on ampicillin-containing plates in the absence of either tryptophane (selection for the bait plasmid) or leucine (selection for the library plasmid). DNA for both plasmids was prepared and sequenced by the dideoxynucleotide chain termination method.” for “adenine.”

Test [3] has as its target T3, zinc finger protein 202, alt. transcript beta (ZNF202b), bait fragment amino acids 1-199 (human, UniProt P04386 1-147; O95125 1-199).
T3 construct: also called ZNF202beta; ZNF202 m1
The test is described as follows: yeast two-hybrid; prey fragment isolated with ZNF202b bait 1-199.
From the text: as §1, with “In” for “The new construct was selected directly in the yeast strain PNY200 for its ability to drive tryptophane synthesis (genotype of this strain: MATα trp1-901 leu2-3, 112 ura3-52 his3-200 ade2 gal4Δ gal80). In”, “adenine. DNA was prepared from each clone, transformed by electroporation into *E. coli* strain KC8 (Clontech KC8 electrocompetent cells, Catalog No. C2023-1), and the cells were selected on ampicillin-containing plates in the absence of either tryptophane (selection for the bait plasmid) or leucine (selection for the library plasmid). DNA for both plasmids was prepared and sequenced by the dideoxynucleotide chain termination method.” for “adenine.”

B1: zinc finger protein 202, alt. transcript beta (ZNF202b), bait fragment amino acids 33-118 (other, UniProt P04386 1-147, looked up)
chain: MKLLSSIEQACDICRLKKLKCSKEKPKCAKCLKNNWECRYSPKTKRSPLTRAHLTEVESRLERLEQLFLLIFPREDLDMILKMDSLQDIKALLTGLFVQDNVNKDAVTDRLASVETDMPLTLRQHRISATSSSEESSNKGQRQLTVSSVLQRDDPVLETSHQNFRRFRYQEAASPREALIRLRELCHQWLRPERRTKEQILELLVLEQFLTVLPGELQSWVRGQRPESGEEAV
notes: also called ZNF202beta; ZNF202 m1
Regarding B1, in test [1], the binding result is on record as “binds”.

B2: novel protein PN7745, prey fragment amino acids 2-156 (other, not shown: small tags and cut ends)
chain: ANFNQSGNIADSSLSFTFTNSSNGPNLITTQTNSQALSQPIASSNVHDNFMNNEITASKIDDGNNSKPLSPGWTDQTAYNAFGITTGMFNTTTMDDVYNYLFDDEDTPPNPKKEQAVVPLNKMTAISPEPQTLASTEQNEVPRVVTSGEQEAILRGNAADAESFRQRFRWFCYSEVAGPRKALSQLWELCNQWLRPDIHTKEQILELLVFEQFLTILPGEIRIWVKSQHPESSEEVVTLIEDLTQILEEKDPVSEDSTVSQEENSKEDK
notes: range 768-881; Yeast two-hybrid prey
As for B2, the binding result in test [2] is “binds”.

B3: novel protein PN7745, prey fragment amino acids 44-171 (other, not shown: small tags and cut ends)
chain: ANFNQSGNIADSSLSFTFTNSSNGPNLITTQTNSQALSQPIASSNVHDNFMNNEITASKIDDGNNSKPLSPGWTDQTAYNAFGITTGMFNTTTMDDVYNYLFDDEDTPPNPKKENAADAESFRQRFRWFCYSEVAGPRKALSQLWELCNQWLRPDIHTKEQILELLVFEQFLTILPGEIRIWVKSQHPESSEEVVTLIEDLTQILEEKDPVSEDSTVSQEENSKEDKMVTVCPNTESCESAL
notes: as for B2
B3: the binding result in test [3] is listed as “binds”.

B4: novel protein PN7745, prey fragment amino acids 2-171 (other, not shown: small tags and cut ends)
chain: ANFNQSGNIADSSLSFTFTNSSNGPNLITTQTNSQALSQPIASSNVHDNFMNNEITASKIDDGNNSKPLSPGWTDQTAYNAFGITTGMFNTTTMDDVYNYLFDDEDTPPNPKKEQAVVPLNKMTAISPEPQTLASTEQNEVPRVVTSGEQEAILRGNAADAESFRQRFRWFCYSEVAGPRKALSQLWELCNQWLRPDIHTKEQILELLVFEQFLTILPGEIRIWVKSQHPESSEEVVTLIEDLTQILEEKDPVSEDSTVSQEENSKEDKMVTVCPNTESCESAL
notes: as for B2
With B4, the binding result in test [3] and in test [2] was “binds” throughout.
